The record followed here is paper PMC3397996, “Ultramarine, a Chromoprotein Acceptor for Förster Resonance Energy Transfer” (PLoS ONE, 2012).

The target of data set [1] is Rtms5^S125R/F162P (Montipora efflorescens). Nature of the data set: SEC; gel filtration, data not shown; self-association. On the technique in general: SEC sorts molecules by how far they enter the pores of the column.
Data set [2] has the same target. Briefly: AUC; sedimentation velocity, 20°C, 300 mM NaCl, 20 mM Tris pH 8.0, samples at 0.1 mg/ml and 1.0 mg/ml, 40,000 rpm; self-association.
Data set [3] has as its target HcRed. Nature of the data set: SEC; Superdex S200 10/30, 100 µl of 1 mg/ml applied, 20 mM Tris-HCl pH 8.0, 300 mM NaCl, column calibrated with molecular weight standards; self-association.
The target of data set [4] is Rtms5^S125R (Montipora efflorescens). The description is as above.
For data set [5], the target named is Rtms5^F162R (Montipora efflorescens). The description is as above.
Data set [6] deals with the molecule itself. Nature of the data set: AUC; sedimentation velocity, 20°C, 300 mM NaCl, 20 mM Tris pH 8.0, samples at 0.1 mg/ml and 1.0 mg/ml, 40,000 rpm; self-association.

Usually stoichiometry N stands for a count of units in the complex or per binding partner. In the case of Rtms5^S125R/F162P (natural protein), the stoichiometry N in data set [1] and in data set [2] was 2 in each case.
Take HcRed: the stoichiometry N in data set [3] worked out at 2.
Take Rtms5^S125R (natural protein): the stoichiometry N in data set [4] came out at 2.
Take Rtms5^F162R (natural protein): the stoichiometry N in data set [5] amounted to 2.

B1: Rtms5 (natural protein)
chain: MSVIATQMTYKVYMSGTVNGHYFEVEGDGKGRPYEGEQTVKLTVTKGGPLPFAWDILSPQCQYGSIPFTKYPEDIPDYVKQSFPEGFTWERIMNFEDGAVCTVSNDSSIQGNCFTYHVKFSGLNFPPNGPVMQKKTQGWEPHSERLFARGGMLIGNNFMALKLEGGGHYLCEFKTTYKAKKPVKMPGYHYVDRKLDVTNHNKDYTSVEQCEISIARKPVVA
notes: Cloned in pQE9N; also called wildtype Rtms5; source: E. coli BL21-DE3 (pQE9N:Rtms5), purified (Ni-NTA)
With B1, the “stoichiometry N” value in data set [6] amounted to 4.
